The record followed here is patent publication US20150272076.

Experiment in all cases: cell_activity
Series [1] has as its system FucT1_T01 TALEN right monomer (synthetic (TAL effector-FokI-type nuclease)?). The conditions noted are these: pair activity on full site SEQ 66, yeast 37C; 0.6 at 30C.
Series [2] concerns XylT_T03 TALEN right monomer (synthetic (TAL effector-FokI-type nuclease)?). The following applies: pair activity on full site SEQ 64, yeast 37C; 0.7 at 30C; protoplast NHEJ 34.4% XylT1, 28.2% XylT2 (Table 3).
In series [3] the test system is FucT1_T02/FucT2_T02 TALEN right monomer (synthetic (TAL effector-FokI-type nuclease)?). The conditions noted are these: pair activity with either left monomer (SEQ 68 or 69), yeast 37C; 0.7 at 30C.
Series [4] relates to FucT2_T01 TALEN right monomer (synthetic (TAL effector-FokI-type nuclease)?). The following applies: pair activity on full site SEQ 67, yeast 37C; 0.8 at 30C.
Series [5] has as its system XylT_T04 TALEN left monomer (synthetic (TAL effector-FokI-type nuclease)?). The following applies: pair activity on full site SEQ 65, yeast 37C; 0.9 at 30C; protoplast NHEJ 73.8% XylT1, 63.9% XylT2 (Table 3).
Series [6] concerns FucT1_T01 TALEN left monomer (synthetic (TAL effector-FokI-type nuclease)?). The conditions noted are these: pair activity on full site SEQ 66, yeast 37C; 0.6 at 30C.
The test system of series [7] is FucT2_T01 TALEN left monomer (synthetic (TAL effector-FokI-type nuclease)?). The conditions noted are these: pair activity on full site SEQ 67, yeast 37C; 0.8 at 30C.
Series [8] concerns FucT2_T02 TALEN left monomer (synthetic (TAL effector-FokI-type nuclease)?).
Series [9] concerns FucT1_T02 TALEN left monomer (synthetic (TAL effector-FokI-type nuclease)?).
Series [10] has as its system XylT_T03 TALEN left monomer (synthetic (TAL effector-FokI-type nuclease)?). The following applies: pair activity on full site SEQ 64, yeast 37C; 0.7 at 30C; protoplast NHEJ 34.4% XylT1, 28.2% XylT2 (Table 3).
Series [11] has as its system FucT1_T04/FucT2_T04 TALEN left monomer (synthetic (TAL effector-FokI-type nuclease)?). The following applies: pair activity on SEQ 70 and SEQ 71, yeast 37C; 0.5 at 30C.
Series [12] concerns FucT1_T04/FucT2_T04 TALEN right monomer (synthetic (TAL effector-FokI-type nuclease)?). The conditions noted are these: pair activity on SEQ 70 and SEQ 71, yeast 37C; 0.5 at 30C.

In turn, “AATAAGCAATGGCGCAA (double strand) [FucT1_T01 target 2 (SEQ 54, printed as top strand)]” had an activity (relative to I-SceI) in series [1] of 0.8. As to “ATCACTCTCTATCTCTA (double strand) [XylT_T03 target 2 (SEQ 50, printed as top strand)]”, the activity (relative to I-SceI) in series [2] worked out at 0.9.

For the sequence “CTCTGTTCGTTGCCCTA (double strand) [FucT_T02 target 2 (SEQ 58, printed as top strand)]”, the activity (relative to I-SceI) in [3] came out at 0.9. As to “GATAAACAATGGCGCAA (double strand) [FucT2_T01 target 2 (SEQ 56, printed as top strand)]”, the activity (relative to I-SceI) in [4] turned out to be 0.9. As for “TCTCTTCGCTCTCAACT (double strand) [XylT_T04 target 1 (SEQ 51)]”, the activity (relative to I-SceI) in [5] is 0.9.

As for “TGAGATCGGCGTCAAAT (double strand) [FucT1_T01 target 1 (SEQ 53)]”, in series [6], the activity (relative to I-SceI) amounted to 0.8.

The sequence “TGAGATCGTCGTCAAAT (double strand) [FucT2_T01 target 1 (SEQ 55)]” had an activity (relative to I-SceI) in series [7] of 0.9. In [8] (FucT2_T02 pair on endogenous FucT1 (1-bp mismatch in left site), N. benthamiana protoplasts, control 0.79%), “TTCAAACGCACCCAATA (double strand) [FucT1_T02 target 1 (SEQ 57)]” had an activity of 46.5 % NHEJ. In series [9] (pair activity on full site SEQ 68, yeast 37C, 0.7 at 30C, protoplast NHEJ 39.2% FucT1 (Table 3)), this sequence came in with an activity (relative to I-SceI) of 0.9. Take “TTCAAACGCACCCGATA (double strand) [FucT2_T02 target 1 (SEQ 59)]”: the activity (relative to I-SceI) in series [8] (pair activity on full site SEQ 69, yeast 37C, 0.7 at 30C, protoplast NHEJ 45.0% FucT2 (Table 3)) was 0.9. The sequence also showed an activity in series [9] (FucT1_T02 pair on endogenous FucT2 (1-bp mismatch in left site), N. benthamiana protoplasts, control 0.14%) of 24.7 % NHEJ.

In turn, “TTCTTGTTTCTCTCTTC (double strand) [XylT_T03 target 1 (SEQ 49)]” registered an activity (relative to I-SceI) in [10] of 0.9.

On to “TTGCCTCTGTTCGTTGC (double strand) [FucT_T04 target 1 (SEQ 62)]”, for which, in series [11], the activity (relative to I-SceI) worked out at 0.6. In the case of “TTTCTGGTTCGACTCGA (double strand) [FucT_T04 target 2 (SEQ 63, printed as top strand)]”, the activity (relative to I-SceI) in series [12] was 0.6.
